Measured values: patent US20180066068A9, “ANTI-PSYK ANTIBODY MOLECULES AND USE OF SAME FOR SYK-TARGETED THERAPY” (Millennium Pharmaceuticals, Inc., priority 2014, published 2018)

What was measured:
Assay type in all cases: binding
[1] = target: T1, pSYK in PHTX 95L xenografts (Homo sapiens, UniProt P43405); experiment: Quantitative pSYK IHC on PHTX 95L xenografts (Positive Pixel Count)
T1 construct: from tissue; host or cells: FFPE sections of PHTX-95L primary human lymphoma xenografts grown in NOD SCID mice
Experimental: Final selection of antibody was performed by qualitative and quantitative assessment of IHC results of staining pSYK in PHTX 95L xenografts from untreated or SYK inhibitor-treated mice described above using the Ventana Discovery XT autostainer and the same staining protocols as previous assays (see FIG. 2).
Quantitative analysis was performed with Aperio Spectrum analysis following Postitive Pixel Count v9 Algorithm at 20× magnification. The Positive pixel analysis was used rather than a signal-to-noise ratio because of program difficulties defining true cytoplasmic staining from background for positive amounts below 5%. The table below has the results of the quantitive analysis.

[2] = target: T2, pSYK in PHTX95L xenograft (Homo sapiens, UniProt P43405); experiment: IHC on Leica BOND RX, PHTX95L xenograft background; conditions: MIL81-1-8 at 1:3200, 2175 at 1:25
T2 construct: from tissue; host or cells: FFPE sections of PHTX-95L primary human lymphoma xenografts grown in NOD SCID mice
Experimental: Similar results were obtained with the MIL81-1-8 subclone using an automated protocol on a Leica automated stainer. pSYK protein levels in Formalin-Fixed, Paraffin-Embedded tissues were incubated with MIL81-1-8 antibody ([…]) for 30 minutes on the Leica Microsystems (Wetzlar, Germany) BOND RX automated stainer. Antibodies were incubated with a rabbit anti-goat HRP secondary antibody (Leica Laboratories) and developed with the 3,3′-diaminobexidine (DAB) substrate map system. Slides were counterstained with hematoxylin and imaged using the Aperio whole slide scanning system (XT). MIL81-1-8 antibody was compared to commercial pSYK antibody Epitomics pSYK Catalog No. 2175-1 (Y525/526) for staining specificity. […] A detectable trend toward reduction of pSYK staining also was seen by the anti-pSYK MIL81-1-8 antibody in medium- and low-expressing xenograft samples from mice treated with a SYK inhibitor (FIGS. 5 to 7).

[3] = target: T3, pSYK in HBL1 and Ly10 xenografts (Homo sapiens, UniProt P43405); experiment: IHC on medium- and low-expressing xenografts
T3 construct: from tissue; host or cells: FFPE HBL1 and OCI-LY10 xenografts in SCID mice
Experimental: An IHC assay using the MIL81-1-8 antibody was developed to evaluate pSYK expression in HBL1 xenograft tissue and several primary human tissue xenografts (PHTX-95L, OCI LY10) derived from diffuse large B-cell lymphoma (DLBCL) patient samples in female SCID mice. pSYK protein levels in Formalin-Fixed, Paraffin-Embedded (FFPE) tissues were assessed on […] thick sections and incubated with MIL81-1-8 antibody ([…]) for 1 hour on the Ventana Medical Systems (Tucson, Ariz.) Discovery XT automated stainer. Antibodies were incubated with OmniMap goat anti-rabbit HRP secondary antibody (Ventana Medical Systems) for 16 minutes and developed with the 3,3′-diaminobexidine (DAB) substrate map system. Slides were counterstained with hematoxylin and imaged using the Aperio whole slide scanning system (XT).
Similar results were obtained with the MIL81-1-8 subclone using an automated protocol on a Leica automated stainer. pSYK protein levels in Formalin-Fixed, Paraffin-Embedded tissues were incubated with MIL81-1-8 antibody ([…]) for 30 minutes on the Leica Microsystems (Wetzlar, Germany) BOND RX automated stainer. Antibodies were incubated with a rabbit anti-goat HRP secondary antibody (Leica Laboratories) and developed with the 3,3′-diaminobexidine (DAB) substrate map system. Slides were counterstained with hematoxylin and imaged using the Aperio whole slide scanning system (XT). […]

[4] = target: T4, pSYK in pervanadate-treated WSU-DLCL cells, PHTX-95L xenograft, DLBCL TMA core, normal spleen (Homo sapiens, UniProt P43405); experiment: Validation of MIL81-1-8 IHC specificity
T4 construct: from tissue; host or cells: pellet of pervanadate-treated WSU-DLCL cells; PHTX-95L xenograft; DLBCL tissue microarray core; normal spleen
Experimental: Validation of the specificity MIL81-1-8 on lymphoma cells used a pellet of pervanadate-treated WSU-DLCL cells, PHTX-95L xenograft or a TMA core of a DLBCL tumor. When peptide immunogen was added to the antibody prior to incubation with the tissue, the pSYK IHC staining was blocked (FIG. 9). Another validation of the specificity of MIL81-1-8 staining used phosphatase treatment of the slides prior to antibody incubation. […] Due to this nuclear staining of phosphatase-treated samples, staining of only nuclei in samples was generally judged to be off-target and thus pSYK-negative.

[5] = target: T5, pSYK Y525/6 in DLBCL tissue biopsies (Homo sapiens, UniProt P43405); experiment: IHC on recently biopsied DLBCL tissues
T5 construct: from tissue; host or cells: FFPE human DLBCL biopsies; one normal lymph node

- ratio of Percent Positive Pixel per total Pixel, PHTX 95L Untreated ([1]; 20× magnification, Positive Pixel Count v9): 25.19%
- ratio of Percent Positive Pixel per total Pixel, PHTX95L SYK Inhibitor ([1]; mice treated with SYK inhibitor (Compound A), 20× magnification): 11.30%
- IHC performance compared with Epitomics 2175-1 ([1]; stains of PHTX-95L xenografts, intensity and signal to noise ratio, listed as MIL81-1-8): performing best and best
- IHC background [2]: minimal background
- Detection of pSYK / distinction of untreated and Syk-inhibitor treated tumors [3]: able to specifically detect
- pSYK IHC staining after phosphatase treatment of slides ([4]; except nuclear staining of normal spleen): eliminated epitopes
- pSYK IHC staining after adding peptide immunogen to the antibody ([4]; peptide blocking): blocked
- Staining in recently biopsied DLBCL tissues versus Epitomics 2175-1 [5]: much stronger and cleaner
B1: Subclone 1-8: rabbit monoclonal anti-pSYK Y525/526 antibody from hybridoma subclone of multiclone 81-1 (antibody)
heavy: QSVEESGGRLVTPGTPLTLTCTVSGIDLNSYIMSWVRQAPGKGLEWIGIISRRGNTYYASWPKGRFTISKTSTTVDLKITSPTTEDTATYFCARAYLYTSGTMSVWGPGTLVTVSSGQPKAPSVFPLAPCCGDTPSSTVTLGCLVKGYLPEPVTVTWNSGTLTNGVRTFPSVRQSSGLYSLSSVVSVTSSSQPVTCNVAHPATNTKVDKTVAPSTCSKPTCPPPELLGGPSVFIFPPKPKDTLMISRTPEVTCVVVDVSQDDPEVQFTWYINNEQVRTARPPLREQQFNSTIRVVSTLPIAHQDWLRGKEFKCKVHNKALPAPIEKTISKARGQPLEPKVYTMGPPREELSSRSVSLTCMINGFYPSDISVEWEKNGKAEDNYKTTPAVLDSDGSYFLYSKLSVPTSEWQRGDVFTCSVMHEALHNHYTQKSISRSPGK
light: ADIVMTQTPSPVEAAVGGTVTIKCQASESISSYLSWYQQKPGQPPKLLIYRASTLVSGVPSRFKGSGSGTDFTLTISDLECADAATYYCQHTYFGSDYVGGFGGGTEVVVKGDPVAPTVLIFPPAADQVATGTVTIVCVANKYFPDVTVTWEVDGTTQTTGIENSKTPQNSADCTYNLSSTLTLTSTQYNSHKEYTCKVTQGTTSVVQSFNRGDC
